Tests used:
[1] = Enzyme characterisation of free and immobilized ACE (optimum pH, temperature, Ea, Km, Vmax); format: biochemical, pig
Protocol: (§1) The ACE was prepared from pig lung and the precipitates were dialyzed and used as a crude enzyme sample for the immobilization of ACE [6]. Twenty-five milligrams of Fe3O4@ZIF-90 nanoparticles were dispersed in 2 mL of crude sample, and incubated with shaking for a certain time at different temperatures to immobilize the ACE. The immobilized ACE (Fe3O4@ZIF-90-ACE) was magnetically recovered and the precipitate was washed several times by 0.1 M phosphate (PBS) buffer until the supernatant was free of protein. Immobilized ACE was quantified using the Bradford method, which used bovine serum albumin (BSA) as the standard. Finally, the obtained immobilized ACE was stored at −80 °C. Enzyme loading capacity was calculated using Equation (1):(1) Enzyme loading capacity(mg⋅g^−1)=(Total protein content-supernatant protein content) /Total mass of Fe3O4@ZIF-90
(§2) ACE activity was evaluated by measuring the amount of hippuric acid (HA). The assay mixture (0.3 mL) consisted of 130 µL BBS buffer pH 8.3 ([…], containing 0.3 M NaCl), 40 µL HHL (5 mM), and different amounts of the free and immobilized ACE. Incubation was carried out at 37 °C for 10 min and was terminated by addition of HCl (0.1 mL, 1 M). The HA content of the mixture was determined by RP-HPLC (Agilent 1260) at 228 nm with a DAD detector. One unit of ACE enzyme activity (U) was defined as the amount of enzyme catalyzing HHL to generate 1 µM of HA per minute under the experimental conditions.

[2] = Enzymatic stability and reusability of free and immobilized ACE; format: biochemical, pig
Protocol: as §1
To determine thermal stability, the immobilized ACE was dispersed in PBS buffer in the absence of the HHL substrate at 20–60 °C for 1 h. […]
The storage stability of immobilized ACE was determined by storing at −20 °C for 30 days. The enzyme activity was then measured, and the relative activity was compared with that of the untreated ACE. The immobilized ACE was evaluated over six successive cycles to investigate the reusability stability; the first-time detection activity was considered as 100%.
as §2

[3] = HHL substrate, Table S2, Lineweaver-Burk

B1: free ACE: free angiotensin-I-converting enzyme (protein, UniProt P12821 30-1306, looked up)
Angiotensin-converting enzyme: LDPGLQPGNFSADEAGAQLFAQSYNSSAEQVLFQSVAASWAHDTNITAENARRQEEAALLSQEFAEAWGQKAKELYEPIWQNFTDPQLRRIIGAVRTLGSANLPLAKRQQYNALLSNMSRIYSTAKVCLPNKTATCWSLDPDLTNILASSRSYAMLLFAWEGWHNAAGIPLKPLYEDFTALSNEAYKQDGFTDTGAYWRSWYNSPTFEDDLEHLYQQLEPLYLNLHAFVRRALHRRYGDRYINLRGPIPAHLLGDMWAQSWENIYDMVVPFPDKPNLDVTSTMLQQGWNATHMFRVAEEFFTSLELSPMPPEFWEGSMLEKPADGREVVCHASAWDFYNRKDFRIKQCTRVTMDQLSTVHHEMGHIQYYLQYKDLPVSLRRGANPGFHEAIGDVLALSVSTPEHLHKIGLLDRVTNDTESDINYLLKMALEKIAFLPFGYLVDQWRWGVFSGRTPPSRYNFDWWYLRTKYQGICPPVTRNETHFDAGAKFHVPNVTPYIRYFVSFVLQFQFHEALCKEAGYEGPLHQCDIYRSTKAGAKLRKVLQAGSSRPWQEVLKDMVGLDALDAQPLLKYFQPVTQWLQEQNQQNGEVLGWPEYQWHPPLPDNYPEGIDLVTDEAEASKFVEEYDRTSQVVWNEYAEANWNYNTNITTETSKILLQKNMQIANHTLKYGTQARKFDVNQLQNTTIKRIIKKVQDLERAALPAQELEEYNKILLDMETTYSVATVCHPNGSCLQLEPDLTNVMATSRKYEDLLWAWEGWRDKAGRAILQFYPKYVELINQAARLNGYVDAGDSWRSMYETPSLEQDLERLFQELQPLYLNLHAYVRRALHRHYGAQHINLEGPIPAHLLGNMWAQTWSNIYDLVVPFPSAPSMDTTEAMLKQGWTPRRMFKEADDFFTSLGLLPVPPEFWNKSMLEKPTDGREVVCHASAWDFYNGKDFRIKQCTTVNLEDLVVAHHEMGHIQYFMQYKDLPVALREGANPGFHEAIGDVLALSVSTPKHLHSLNLLSSEGGSDEHDINFLMKMALDKIAFIPFSYLVDQWRWRVFDGSITKENYNQEWWSLRLKYQGLCPPVPRTQGDFDPGAKFHIPSSVPYIRYFVSFIIQFQFHEALCQAAGHTGPLHKCDIYQSKEAGQRLATAMKLGFSRPWPEAMQLITGQPNMSASAMLSYFKPLLDWLRTENELHGEKLGWPQYNWTPNSARSEGPLPDSGRVSFLGLDLDAQQARVGQWLLLFLGIALLVATLGLSQRLFSIRHRSLHRHSHGPQFGSEVELRHS
Question: Which results are given for B1?
Answer: loss of relative activity between 35°C and 50°C ([1]; 35°C to 50°C): > 40%; Ea (activation energy) ([1]; Arrhenius equation, Fig. S5 (c)): 8.535 kcal/mol; Optimum pH ([1]; Fig. S5 (a)): 8.3; optimum temperature ([1]; Fig. S5 (b)): 40 °C; Km [1, 3]: 1960 µM; Vmax [1, 3]: 46.296 mmol/min; catalytic efficiency ([1]; Table S2): 23.596; activity lost on storage ([2]; 30 days, −20 °C): 45.04%; residual activity (thermal stability) ([2]; after heating at 60 °C for 1 h, PBS buffer, absence of HHL): 22.03%; relative activity (pH stability) ([2]; pH 5.0–10.0 (method: pH 5.0–9.0), 1 h): 37.05%
